According to patent US20200040103A1 (Genentech, published 2020):

Key:
[1] = molecular target: human KLK7 (human, UniProt P49862 30-253, limits assumed); experiment: column 6: KLK7 activity assay, 5 nM KLK7
Method: KLK7 selectivity assay was performed at room temperature in a 384-well plate (black, low-volume round bottom, Corning #4514) with a final reaction volume of 15 μL. Inhibitor samples were diluted to 3× final concentration in assay buffer (75 mM Tris, pH 8.0, 150 mM NaCl, 0.01% TWEEN® 20). Reactions lacking inhibitor and reactions lacking enzyme were used as 100% and 0% activity controls, respectively. Inhibitor or control samples (5 μL) were added to the plate followed by 5 μL KLK7 (Genentech) in assay buffer at a final concentration of 5 nM. After 30 min, 5 μL of Suc-Leu-Leu-Val-Tyr-AMC (Bachem I-1395, 25 mM stock solution in water) in assay buffer was added at a final concentration of 100 μM. […] Reaction rates (expressed as RFU/s) were calculated by linear regression in the range 2040-4488 seconds. Reaction rates were normalized to the values of the 0% and 100% activity controls and fit with a 4-parameter equation to calculate IC₅₀ values. […]

[2] = molecular target: T1, trypsin isolated from bovine pancreas (bovine, UniProt P00760 24-246); experiment: column 9: trypsin activity assay, 0.25 nM trypsin
T1 construct: also called bovine trypsin
T1 sequence (P00760 24-246): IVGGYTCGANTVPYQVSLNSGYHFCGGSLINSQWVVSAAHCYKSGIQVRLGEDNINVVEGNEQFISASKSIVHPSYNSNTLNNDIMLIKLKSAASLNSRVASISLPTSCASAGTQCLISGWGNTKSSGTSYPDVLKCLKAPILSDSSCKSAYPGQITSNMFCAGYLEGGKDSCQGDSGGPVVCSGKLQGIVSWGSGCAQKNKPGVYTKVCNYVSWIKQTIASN
Method: 0.25 nM trypsin isolated from bovine pancreas and 0.19-100 nM anti-KLK5 inhibitors were pre-incubated for 30 minutes prior to addition of 50 μM Boc-VPR-AMC. […] The results for the KLK5 inhibitors are depicted as follows: FIG. 9A: Spink9.SRE.Fc, FIG. 9B: mAb1108, FIG. 9C: 3-3F5, FIG. 9D: 10C8, FIG. 9E: 9B6, FIG. 9F: 9F2, FIG. 9G: 9H3, FIG. 9H: 9H5, FIG. 9I: 8B7, FIG. 9J: 2B11, FIG. 9K: 8F5, FIG. 9L: 10C5, FIG. 9M: 10H3 and FIG. 9N: 2-3F4.
(§1) Trypsin selectivity assay was performed at room temperature in a 384-well plate (black, low-volume round bottom, Corning #4514) with a final reaction volume of 15 μL. Inhibitor samples were diluted to 3× final concentration in assay buffer (75 mM Tris, pH 8.0, 150 mM NaCl, 0.01% TWEEN® 20). Reactions lacking inhibitor and reactions lacking enzyme were used as 100% and 0% activity controls, respectively. Inhibitor or control samples (5 μL) were added to the plate followed by 5 μL trypsin (Sigma Aldrich T8003, Lot SLBM2321V, 42.0 μM stock solution in 1 mM HCl) in assay buffer at a final concentration of 0.25 nM. After 30 minutes, 5 μL of Boc-Val-Pro-Arg-AMC (Bachem I-1120, 31.3 mM stock solution in water) in assay buffer was added at a final concentration of 50 μM. […] Reaction rates (expressed as RFU/s) were calculated by linear regression in the range 204-3570 seconds. Reaction rates were normalized to the values of the 0% and 100% activity controls and fit with a 4-parameter equation to calculate IC₅₀ values. In the case of bivalent inhibitors, the raw IC₅₀ value was multiplied by two.

[3] = molecular target: human KLK1 (human, UniProt P06870 25-262, limits assumed); experiment: column 7: KLK1 activity assay, 3 nM KLK1
Chain of human KLK1 (P06870 25-262 limits assumed): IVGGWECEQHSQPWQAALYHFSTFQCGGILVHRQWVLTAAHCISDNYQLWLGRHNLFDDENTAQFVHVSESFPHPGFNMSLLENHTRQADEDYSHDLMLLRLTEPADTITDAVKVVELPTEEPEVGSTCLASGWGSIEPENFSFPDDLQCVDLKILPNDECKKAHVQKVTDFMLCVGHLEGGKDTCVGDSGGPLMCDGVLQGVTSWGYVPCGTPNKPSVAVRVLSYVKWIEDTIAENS

[4] = molecular target: human KLK4 (human, UniProt Q9Y5K2 31-254, limits assumed); experiment: column 8: KLK4 activity assay, 2 nM KLK4
Chain of human KLK4 (Q9Y5K2 31-254 limits assumed): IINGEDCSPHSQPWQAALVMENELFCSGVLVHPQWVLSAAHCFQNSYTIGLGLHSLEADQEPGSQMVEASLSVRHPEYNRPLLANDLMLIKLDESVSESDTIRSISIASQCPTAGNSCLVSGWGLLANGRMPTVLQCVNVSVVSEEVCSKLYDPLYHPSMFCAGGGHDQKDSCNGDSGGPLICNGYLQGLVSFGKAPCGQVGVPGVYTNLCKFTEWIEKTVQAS
Method: as §1, with “KLK4” for “Trypsin”, “KLK4 (R&D Systems, 1719-SE,” for “trypsin (Sigma Aldrich T8003,”, “MSY0116011, activated according to R&D systems protocol)” for “SLBM2321V, 42.0 μM stock solution in 1 mM HCl)”, “2” for “0.25”, “510-3570” for “204-3570”
In FIG. 8, the ability of Spink9.SRE.Fc, mAb1108 or 12 selected anti-KLK5 antibodies to inhibit the proteolysis of the substrate, Boc-VPR-AMC, by human KLK4 was assessed using an enzymatic assay. […] The results were expressed as a percentage of maximum KLK4 activity (% control).

Measured: IC50

Chain of human KLK7 (P49862 30-253 limits assumed): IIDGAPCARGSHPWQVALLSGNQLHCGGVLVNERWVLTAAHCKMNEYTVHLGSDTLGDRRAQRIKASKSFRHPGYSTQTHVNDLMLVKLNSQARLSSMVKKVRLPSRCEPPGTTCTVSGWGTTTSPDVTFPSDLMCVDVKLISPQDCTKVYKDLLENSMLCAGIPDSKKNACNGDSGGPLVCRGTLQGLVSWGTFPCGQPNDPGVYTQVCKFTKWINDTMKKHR

B1: 2B11 (antibody, V domains shown)
VH: QSVKESEGGLFKPTDTLTLTCTVSGFSLINYGVSWVRQAPGKGLEWIGYIGSAGSTYYATWAKSRATITRNTNLNTVTLKMTSLTAADTATYFCARAAYSAGSADAEDIWGPGTLVTVSS
VL: AYYMTQTPASVEAAVGGTVTIKCQASQSISNYVAWYQQKPGQPPKLLIYRASTLASGVSSRFSGSGSGTEFTLTISDLECADAATYYCHQGYSSSNVDNIFGGGTEVVVK
> 100 nM: [1] | [2] | [3] | [4]

B2: 3-3F5 (antibody, V domains shown)
VH: QSVKESEGGLFKPTDTLTLTCTVSGFSLNDYGVSWVRQAPGNGLEWIGAIGSSGVAWYANWAKGRSTITRNTNLNTVTLKMASLTAADTATYFCARDRDYGYRADDATSGMDLWGPGTLVTVSS
VL: AYDMTQTPASVEAAVGGTVTIKCQASESIGNALAWYQQKPGQPPKLLIYDASDLASGVPSRFKGSGSGTQFTLTISGVECADAATYYCQQGDSHNNVDNIFGGGTEVVVK
notes: Rabbit monoclonal; also called Chimeric 3-3F5
> 100 nM: [1] | [2] | [3] | [4]

B3: 10H3 (antibody, V domains shown)
VH: QSVKESEGGLIKPTDTLTLTCTVSGFSLSTFAINWVRQAPGNGLEWIGAIGRGGSAYYASWAKSRSTITKNTNLNTVTLKMTRPTAADTATYFCARENAGSGWGELDIWGPGTLVTVSS
VL: AYEMTQTPASVEVAVGGTVTINCQASESISSDLAWYQQKPGQRPKLLIYAASTLASGVPSRFKGSGSGTEFTLSISGVQCADAATYYCQQGYTWNNVDNVFGGGTEVVVK
notes: also called KLK5.10H3 (complex sample)
> 100 nM: [1] | [2] | [3] | [4]

B4: 2-3F4 (antibody, V domains shown)
VH: QSVEESRGGLIKPTDTLTLTCTASGFSLSNYGVSWVRQAPGNGLEYIGFIGYGGSTYYASWAKSRSTITRNTNLNTVTLQMTSLTAADTATYFCARLCGVDCADALDSWGPGTLVTVSS
VL: AYYMTQTPASVEVAVGGTVTIKCQASEDIGSYCSWYQQKPGQPPKLLIYDASDLASGVPSRFKGSGSGTDFTLTISGVQCDDAATYYCQQDYTGNNVDNTFGGGSEVVVK
> 100 nM: [1] | [2] | [3] | [4]

B5: 8F5 (antibody, V domains shown)
VH: QSVKESEGGLFKPTDTLTLTCTVSGFSLSSYPISWVRQAPGNGLEWIGYITSEYGVAYYATWAESRSTITRNTNLNTVTLKMTSLTAADTATYFCVRENPTYGYAYDAWGPGTLVTVSS
VL: AYDLTQTPASVEAAVGGTVTINCQASESIGNELSWYQQKSGQPPKLLIYQASTLASGVPSRFKGSGSGTDFTLTISDLECADAATYYCAQGFSSSGVENVFGGGTEVVVK
> 100 nM: [1] | [2] | [3] | [4]

B6: 10C5 (antibody, V domains shown)
VH: QSLEESGGGLVKPTDTLTLTCTVSGFSLSSYGVTWVRQAPGRGLEWIGYITSNYGVSYYASWAKSRSTITRNTNLNTVTLKMTSLTAADTATYFCARENPDYGYAYDAWGPGTLVTVSV
VL: AYDMTQTPASLEAAVGGTVTINCQASESISNELSWYQQKPGQPPDLLIYYASTLASGVPSRFKGSGSGTEFTLTISDLECADAATYYCAQGFGSSGVENVFGGGTEVVVK
notes: Rabbit monoclonal; also called Chimeric 10C5; KLK5.10C5 (complex sample)
> 100 nM: [1] | [2] | [3] | [4]

B7: 9B6 (antibody, V domains shown)
VH: QSVKESEGGLFKPTDNLTLTCTVSGFSLSNYGVTWVRQAPGNGLEYIGFIGSGGSAYYASWAKSRSTITRNTNLNTVTLKMTSLTAADTATYFCARDDVGGGKSLDIWGPGTLVTVSS
VL: NIVMTQTPASVEVAVGGTVVIKCQASQNIGDYLSWYQQKPGQRPKLLIYSASTLASGVPSRFKGSGSGTQFTLTISDLECADAATYYCHQDYTSNDVENTFGGGTEVVVK
> 100 nM: [1] | [2] | [3] | [4]

B8: 10C8 (antibody, V domains shown)
VH: QSVKESEGGLFKPTDNLTLTCTVSGFSLSSYGVSWVRQAPGNGLEYIGFIGSGGFAYYASWAKSRSTITRNTNLNTVTLKMTSLTAADTATYFCARDDVGGGRSLDIWGPGTVVTVSS
VL: NIVMTQTPASVEVAMGGTVIIKCQASQSISTYLSWYQQKPGQPPKLLIYSASTLASGVSSRFEGSGSGTQFTLTISGVQCADAATYYCHQDYTSNNVDNTFGGGTEVVVK
> 100 nM: [1] | [2] | [3] | [4]

B9: 9H3 (antibody, V domains shown)
VH: QSVKESEGGLFKPTDTLTLTCTVSGFSLSGYGVSWVRQAPGKGLEYIGFIGSGGSAYYASWAKSRSTITRNTNLNTVTLKMTRLTAADTATYFCARDNVGGDMSLDIWGPGTLVTVSS
VL: DIVMTQTPASVSEPVGGTVTIKCQASQNINNYLSWYQQKPGQPPKQLIYAASTLASGVPSRFKGSGSGTQFTLTISDLECADAATYYCHQDYTSNNVDNTFGGGTEVVVK
> 100 nM: [1] | [2] | [3] | [4]

B10: 9H5 (antibody, V domains shown)
VH: QSVKESEGGLFKPTDNLTLTCTVSGFSLSSYGVSWVRQAPGNGLEYIGFIGSGGFAYYASWAKSRSTITRNTNLNTVTLKMTSLTAADTATYFCARDDVGGGKSLDIWGPGTVVTVSV
VL: NIVMTQTPASVEAAVGGTVTINCQASQSISSYLSWYQQKSGQRPKLLIFSASTLASGVPSRFTGSGSGTQFTLTISDLQCADAATYYCHQDYTSSNVDNTFGGGTEVVVK
notes: Rabbit monoclonal; also called Chimeric 9H5; KLK5.9H5 (complex sample)
> 100 nM: [1] | [2] | [3] | [4]

B11: 9F2 (antibody, V domains shown)
VH: QSVKESEGGLFKPTDNLTLTCTVSGFSLSSYGVSWVRQAPGNGLEYIGFIGSGGSPYYASWAKSRSTITRNTNLNTVTLKMTSLTAADTATYFCARDDVGGGKSLDIWGPGTLVTVSS
VL: NIVMTQTPASVEVAVGGTVIIKCQASQSISNYLSWYHQKSGQRPRLLIYSASTLASGVPSRFKGSGSGTQFTLTISDLECADAATYYCHQDYTSNSVDNTFGGGTEVVVK
> 100 nM: [1] | [2] | [3] | [4]

B12: 8B7 (antibody, V domains shown)
VH: QSVKESEGGLFKPTDNLTLTCTVSGFSLSNYGVTWVRQAPGNGLEYIGFIGSSGSAYYASWAKSRSTITRNTNLNTVTLKMTSLTAADTATYFCARDDVGGGKSLDIWGPGTLVTVSS
VL: NIVMTQTPASVEVAVGGTVTIKCQASQSIGSYLSWYQQKPGQPPKLLIYDASNLASGVPSRFKGSGSGTQFTLSISDLECADAATYYCHQDYTSNNVDNTFGGGTEVVIK
> 100 nM: [1] | [2] | [3] | [4]
